From article PMC6497562 (Molecular cancer research : MCR, 2019)

Target: neurofibromin (human (endogenous in 786-0 and RCC4), UniProt P21359-2 1-2818)
Assay: co-IP

B1: hypoxia-associated factor (HAF), endogenous (natural protein, human (endogenous in 786-0), UniProt O43290 1-800, looked up)
chain: MGSSKKHRGEKEAAGTTAAAGTGGATEQPPRHREHKKHKHRSGGSGGSGGERRKRSRERGGERGSGRRGAEAEARSSTHGRERSQAEPSERRVKREKRDDGYEAAASSKTSSGDASSLSIEETNKLRAKLGLKPLEVNAIKKEAGTKEEPVTADVINPMALRQREELREKLAAAKEKRLLNQKLGKIKTLGEDDPWLDDTAAWIERSRQLQKEKDLAEKRAKLLEEMDQEFGVSTLVEEEFGQRRQDLYSARDLQGLTVEHAIDSFREGETMILTLKDKGVLQEEEDVLVNVNLVDKERAEKNVELRKKKPDYLPYAEDESVDDLAQQKPRSILSKYDEELEGERPHSFRLEQGGTADGLRERELEEIRAKLRLQAQSLSTVGPRLASEYLTPEEMVTFKKTKRRVKKIRKKEKEVVVRADDLLPLGDQTQDGDFGSRLRGRGRRRVSEVEEEKEPVPQPLPSDDTRVENMDISDEEEGGAPPPGSPQVLEEDEAELELQKQLEKGRRLRQLQQLQQLRDSGEKVVEIVKKLESRQRGWEEDEDPERKGAIVFNATSEFCRTLGEIPTYGLAGNREEQEELMDFERDEERSANGGSESDGEENIGWSTVNLDEEKQQQDFSASSTTILDEEPIVNRGLAAALLLCQNKGLLETTVQKVARVKAPNKSLPSAVYCIEDKMAIDDKYSRREEYRGFTQDFKEKDGYKPDVKIEYVDETGRKLTPKEAFRQLSHRFHGKGSGKMKTERRMKKLDEEALLKKMSSSDTPLGTVALLQEKQKAQKTPYIVLSGSGKSMNANTITK
- fold increase of binding in hypoxia over normoxia: ~2 fold
